Among the data in paper PMC2659011 are Km, kcat and kcat/Km values, retold here.

Broadly, the Km is the concentration of substrate that gives half-maximal velocity. Broadly, the kcat is the number of substrate molecules converted per active site and unit of time at saturation. As a reminder, the kcat/Km is the second-order rate constant that governs catalysis at low substrate concentration.

Substrate in data set [1]: CC#CC(=O)C(=O)O
Nature of the data set: spectrophotometric hydration assay. It is filed as biochemical, Corynebacterium glutamicum. The note with it: 20 mM Na2HPO4 pH 9.0, 23 °C.

Substrate in data set [2]: O=C(O)/C=C/Cl
Nature of the data set: purified protein. Conditions: 20 mM Na2HPO4 pH 9.0, 22 °C.

Substrate in data set [3]: O=C(O)/C=C\Cl
Nature of the data set: purified protein. The note with it: 20 mM Na2HPO4 pH 9.0, 22 °C.

B1: Cg10062 (Corynebacterium glutamicum ATCC 13032) (protein)
chain: PTYTCWSQRIRISREAKQRIAEAITDAHHELAHAPKYLVQVIFNEVEPDSYFIAAQSASENHIWVQATIRSGRTEKQKEELLLRLTQEIALILGIPNEEVWVYITEIPGSNMTEYGRLLMEPGEEEKWFNSLPEGLRERLTELEGSSE
Take B1: the Km in data set [1] came out at 6.2 ± 0.75 mM; in data set [2], 78 ± 36 mM; in data set [3], 19 ± 1 mM. The kcat in data set [1] stood at 0.33 ± 0.03 s⁻¹; in data set [2] it was 0.06 ± 0.01 s⁻¹; in data set [3], 3.5 ± 1.1 s⁻¹. The kcat/Km is 50 M⁻¹ s⁻¹ in data set [1], 0.8 M⁻¹ s⁻¹ in data set [2] and 184 M⁻¹ s⁻¹ in data set [3].

B2: CaaD (trans-3-chloroacrylic acid dehalogenase) (Pseudomonas pavonaceae) (protein)
chain 1: PMISCDMRYGRTDEQKRALSAGLLRVISEATGEPRENIFFVIREGSGINFVEHGEHLPDYVPGNANDKALIAKLK
chain 2: PFIECHIATGLSVARKQQLIRDVIDVTNKSIGSDPKIINVLLVEHAEANMSISGRIHGEAASTERTPAVS
Take B2: in data set [2], the Km was 0.028 ± 0.003 mM, the kcat turned out to be 1.9 ± 0.6 s⁻¹ and the kcat/Km amounted to 68000 M⁻¹ s⁻¹.
